The target in the assay is T1, recombinant human AXL extracellular domain, C-terminally His8-tagged (rhAXL-ECD) (human, UniProt P30530 26-451).
T1 construct: Made in CHO cells; also called (rh)AXL-ECD His8; human AXL ECD
T1 sequence: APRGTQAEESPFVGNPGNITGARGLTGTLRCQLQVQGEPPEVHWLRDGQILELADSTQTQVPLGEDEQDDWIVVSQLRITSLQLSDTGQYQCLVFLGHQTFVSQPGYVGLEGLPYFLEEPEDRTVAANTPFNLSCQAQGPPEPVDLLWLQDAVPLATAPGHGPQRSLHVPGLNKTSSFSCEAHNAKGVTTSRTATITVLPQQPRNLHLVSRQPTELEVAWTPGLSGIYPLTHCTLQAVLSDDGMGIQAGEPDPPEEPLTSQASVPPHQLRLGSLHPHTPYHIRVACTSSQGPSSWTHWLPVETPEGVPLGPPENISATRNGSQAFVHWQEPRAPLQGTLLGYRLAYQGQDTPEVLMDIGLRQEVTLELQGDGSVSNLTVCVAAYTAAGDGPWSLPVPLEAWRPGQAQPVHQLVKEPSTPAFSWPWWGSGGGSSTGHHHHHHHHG
Nature of the assay: SPR, steady-state analysis (format not stated). The procedure:
For VH Hs and VHH-Fcs, binding to human and cynomolgus AXL ECD was assessed using either a Biacore T200 instrument or a Biacore 3000 instrument. Either human AXL ECD or anti-human Fc antibody was immobilized on a research-grade CM5 series S sensor chip (T200, rhAXL ECD) or a C1 sensor chip (3000, anti-human Fc) using amine coupling in acetate buffer. VHH-Fcs were captured on anti-human Fc surfaces. Either monomeric VHHs (for rhAXL ECD surfaces) or human and cyno AXL ECD (for VHH-Fc surfaces) were flowed over the surfaces at different concentration ranges. Running buffers were HBS-EP (3000) and HBS-EP+(T200). Flow rates were 10-40 ul/min. All binding studies were performed at 25° C. Surfaces were regenerated using 10 mM glycine, pH 1.5.
A general note: In SPR one partner is held on a chip, and binding of the other changes the refractive index at the surface.

The text below walks through data of patent US20240076389A1 (NATIONAL RESEARCH COUNCIL OF CANADA, published 2024).

B1: NRC-sdAb002 (VHH monomer) (VHH)
VHH: QVQLVDSGGGLVQAGGSLRLSCATSTRTVSSAVMAWFRQAPEKVRDFVGFITNSGNILYDDSVKGRFTISRDNAQNTVYLQMNSLKPEDTAVYYCAAKWSFSSGYGDLRRAAMYDYWGQGTQVTVSS
notes: Llama VHH monomer; not shown: 6xHis and Myc tags
With B1, the Kd (usually the free concentration of one partner at which half of the binding sites on the other are occupied at equilibrium, for simple one-to-one binding) was determined as 96 nM.
